Reference: the Immune Epitope Database (IEDB)
Values belong to the sequence of their own block, whether it stands above or below them.

How the values were obtained:
[1] = biological target: HLA-B*73:01; test: IEDB peptide-MHC binding, purified MHC/direct/fluorescence; filed as Kd, often an IC50 or EC50 that approximates it; ≥ and ≤ were set here for values at or beyond the usual limits of such assays; settings: source organism: Giardia lamblia ATCC 50803
[2] = biological target: HLA-B*44:02; test: as above; settings: source organism: Giardia lamblia ATCC 50803
[3] = biological target: HLA-A*69:01; test: as above
[4] = biological target: HLA-A*02:01; test: as above; settings: source organism: Giardia lamblia ATCC 50803
[5] = biological target: HLA-B*27:05; test: as above; settings: source organism: Giardia lamblia ATCC 50803
[6] = biological target: HLA-A*30:01; test: as above; settings: source organism: Giardia lamblia ATCC 50803
[7] = biological target: HLA-B*40:01; test: as above; settings: source organism: Giardia lamblia ATCC 50803
[8] = biological target: HLA-A*11:01; test: as above; settings: source organism: Giardia lamblia ATCC 50803
[9] = biological target: HLA-B*15:01; test: as above; settings: source organism: Giardia lamblia ATCC 50803
[10] = biological target: HLA-A*03:01; test: as above; settings: source organism: Giardia lamblia ATCC 50803
[11] = biological target: HLA-B*08:01; test: as above
[12] = biological target: HLA-A*31:01; test: as above
[13] = biological target: HLA-B*58:01; test: as above
[14] = biological target: HLA-A*01:01; test: as above
[15] = biological target: HLA-B*07:02; test: as above
[16] = biological target: HLA-A*26:01; test: as above
[17] = biological target: HLA-C*06:02; test: IEDB peptide-MHC binding, purified MHC/competitive/fluorescence; filed as Kd, often an IC50 or EC50 that approximates it; ≥ and ≤ were set here for values at or beyond the usual limits of such assays; settings: source organism: Homo sapiens
[18] = biological target: HLA-A*32:07; test: as above; settings: source organism: Homo sapiens
[19] = biological target: HLA-A*68:23; test: as above; settings: source organism: Homo sapiens
[20] = biological target: HLA-B*45:06; test: as above; settings: source organism: Homo sapiens
[21] = biological target: HLA-A*32:15; test: as above; settings: source organism: Homo sapiens
[22] = biological target: HLA-B*15:42; test: as above; settings: source organism: Homo sapiens
[23] = biological target: HLA-B*40:13; test: as above; settings: source organism: Homo sapiens
[24] = biological target: HLA-B*83:01; test: as above; settings: source organism: Homo sapiens
[25] = biological target: HLA-B*51:01; test: IEDB peptide-MHC binding, purified MHC/direct/fluorescence; filed as Kd, often an IC50 or EC50 that approximates it; ≥ and ≤ were set here for values at or beyond the usual limits of such assays; settings: source organism: Homo sapiens
[26] = biological target: HLA-C*07:02; test: as above; settings: source organism: Homo sapiens
[27] = biological target: HLA-C*05:01; test: as above; settings: source organism: Homo sapiens
[28] = biological target: HLA-B*15:17; test: IEDB peptide-MHC binding, purified MHC/competitive/fluorescence; filed as Kd, often an IC50 or EC50 that approximates it; ≥ and ≤ were set here for values at or beyond the usual limits of such assays; settings: source organism: Brucella abortus S19
[29] = biological target: HLA-A*26:02; test: as above; settings: source organism: Brucella abortus S19
[30] = biological target: HLA-A*02:01; test: as above; settings: source organism: Brucella abortus S19
[31] = biological target: HLA-A*11:01; test: as above; settings: source organism: Brucella abortus S19
[32] = biological target: HLA-B*15:01; test: as above; settings: source organism: Brucella abortus S19
[33] = biological target: HLA-A*68:02; test: as above; settings: source organism: Brucella abortus S19
[34] = biological target: HLA-A*02:03; test: as above; settings: source organism: Brucella abortus S19
[35] = biological target: HLA-B*18:01; test: as above; settings: source organism: Brucella abortus S19
[36] = biological target: HLA-A*02:06; test: as above; settings: source organism: Brucella abortus S19
[37] = biological target: HLA-B*39:01; test: IEDB peptide-MHC binding, purified MHC/direct/fluorescence; filed as Kd, often an IC50 or EC50 that approximates it; ≥ and ≤ were set here for values at or beyond the usual limits of such assays; settings: source organism: Brucella suis 1330
[38] = biological target: HLA-C*06:02; test: as above; settings: source organism: Brucella abortus S19
[39] = biological target: HLA-B*15:09; test: as above; settings: source organism: Brucella suis 1330
[40] = biological target: HLA-B*08:03; test: as above; settings: source organism: Brucella suis 1330
[41] = biological target: HLA-A*23:01; test: as above; settings: source organism: Brucella abortus 2308
[42] = biological target: HLA-C*14:02; test: as above; settings: source organism: Brucella abortus S19
[43] = biological target: HLA-C*15:02; test: as above; settings: source organism: Brucella abortus S19
[44] = biological target: HLA-A*24:03; test: as above
[45] = biological target: HLA-B*57:01; test: as above; settings: source organism: Brucella abortus 2308
[46] = biological target: HLA-C*04:01; test: as above; settings: source organism: Nostoc punctiforme PCC 73102
[47] = source organism: Giardia lamblia ATCC 50803
[48] = source organism: Brucella abortus 2308
[49] = source organism: Brucella suis 1330

Sequence: IRNLVKRYK
- Kd [1]: 3.5 µM
- Kd [2]: ≥ 20 µM
- Kd [3, 47]: ≥ 20 µM
- Kd [4]: ≥ 20 µM
- Kd [5]: 1.21 µM
- Kd [6]: 0.0508 µM
- Kd [7]: ≥ 20 µM
- Kd [8]: ≥ 20 µM
- Kd [9]: ≥ 20 µM
- Kd [10]: ≥ 20 µM
- Kd [11, 47]: ≥ 20 µM
- Kd [12, 47]: ≥ 20 µM
- Kd [13, 47]: ≥ 20 µM
- Kd [14, 47]: ≥ 20 µM
- Kd [15, 47]: ≥ 20 µM
- Kd [16, 47]: ≥ 20 µM

- Kd [17]: 1.78 µM
- Kd [18]: 0.0047 µM
- Kd [19]: 0.0065 µM
- Kd [20]: ≥ 5 µM
- Kd [21]: 0.0202 µM
- Kd [22]: ≥ 5 µM
- Kd [23]: 0.213 µM
- Kd [24]: 3.6 µM
- Kd [25]: 0.168 µM
- Kd [26]: 3.31 µM
- Kd [27]: ≥ 20 µM
Sequence: MAMGILHTI

Sequence: YWMGGTTYF
- Kd [28]: 1.02 µM
- Kd [29]: ≥ 20 µM
- Kd [30]: 1.12 µM
- Kd [31]: 2.07 µM
- Kd [32]: 1.04 µM
- Kd [33]: ≥ 20 µM
- Kd [34]: 4.23 µM
- Kd [35]: ≥ 20 µM
- Kd [36]: 0.797 µM
- Kd [37]: ≥ 20 µM
- Kd [38]: ≥ 20 µM
- Kd [3, 48]: ≥ 20 µM
- Kd [39]: ≥ 20 µM
- Kd [40]: ≥ 20 µM
- Kd [41]: 0.0535 µM
- Kd [42]: ≤ 0.001 µM
- Kd [11, 49]: ≥ 20 µM
- Kd [12, 48]: ≥ 20 µM
- Kd [43]: ≥ 20 µM
- Kd [13, 48]: ≥ 20 µM
- Kd [44, 48]: ≤ 0.001 µM
- Kd [14, 48]: ≥ 20 µM
- Kd [15, 48]: ≥ 20 µM
- Kd [16, 49]: ≥ 20 µM
- Kd [45]: ≥ 20 µM

Sequence: YWPTEGYEF
- Kd [46]: 0.222 µM
- Kd ([44]; source organism: Escherichia coli O157:H7): ≤ 0.001 µM
